Laboratory results from IntAct's records for PubMed 25910212.

B1: EF-hand domain-containing protein 1 (Homo sapiens), Q5JVL4 (parent)
chain: MVSNPVHGLPFLPGTSFKDSTKTAFHRSQTLSYRNGYAIVRRPTVGIGGDRLQFNQLSQAELDELASKAPVLTYGQPKQAPPADFIPAHVAFDKKVLKFDAYFQEDVPMSTEEQYRIRQVNIYYYLEDDSMSVIEPVVENSGILQGKLIKRQRLAKNDRGDHYHWKDLNRGINITIYGKTFRVVDCDQFTQVFLESQGIELNPPEKMALDPYTELRKQPLRKYVTPSDFDQLKQFLTFDKQVLRFYAIWDDTDSMYGECRTYIIHYYLMDDTVEIREVHERNDGRDPFPLLMNRQRVPKVLVENAKNFPQCVLEISDQEVLEWYTAKDFIVGKSLTILGRTFFIYDCDPFTRRYYKEKFGITDLPRIDVSKREPPPVKQELPPYNGFGLVEDSAQNCFALIPKAPKKDVIKMLVNDNKVLRYLAVLESPIPEDKDRRFVFSYFLATDMISIFEPPVRNSGIIGGKYLGRTKVVKPYSTVDNPVYYGPSDFFIGAVIEVFGHRFIILDTDEYVLKYMESNAAQYSPEALASIQNHVRKREAPAPEAESKQTEKDPGVQELEALIDTIQKQLKDHSCKDNIREAFQIYDKEASGYVDRDMFFKICESLNVPVDDSLVKELIRMCSHGEGKINYYNFVRAFSN
partner: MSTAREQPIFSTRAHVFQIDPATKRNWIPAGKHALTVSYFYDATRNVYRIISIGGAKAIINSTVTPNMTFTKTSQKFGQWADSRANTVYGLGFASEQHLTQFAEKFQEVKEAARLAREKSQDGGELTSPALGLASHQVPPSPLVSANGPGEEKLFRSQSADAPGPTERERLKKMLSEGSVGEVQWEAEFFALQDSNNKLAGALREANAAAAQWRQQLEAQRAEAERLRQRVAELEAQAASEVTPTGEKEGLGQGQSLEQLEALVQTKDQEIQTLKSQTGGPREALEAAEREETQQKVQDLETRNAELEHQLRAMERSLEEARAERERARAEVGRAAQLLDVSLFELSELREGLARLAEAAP
B2: Polyunsaturated fatty acid 5-lipoxygenase (Homo sapiens), P09917 (parent)
chain: MPSYTVTVATGSQWFAGTDDYIYLSLVGSAGCSEKHLLDKPFYNDFERGAVDSYDVTVDEELGEIQLVRIEKRKYWLNDDWYLKYITLKTPHGDYIEFPCYRWITGDVEVVLRDGRAKLARDDQIHILKQHRRKELETRQKQYRWMEWNPGFPLSIDAKCHKDLPRDIQFDSEKGVDFVLNYSKAMENLFINRFMHMFQSSWNDFADFEKIFVKISNTISERVMNHWQEDLMFGYQFLNGCNPVLIRRCTELPEKLPVTTEMVECSLERQLSLEQEVQQGNIFIVDFELLDGIDANKTDPCTLQFLAAPICLLYKNLANKIVPIAIQLNQIPGDENPIFLPSDAKYDWLLAKIWVRSSDFHVHQTITHLLRTHLVSEVFGIAMYRQLPAVHPIFKLLVAHVRFTIAINTKAREQLICECGLFDKANATGGGGHVQMVQRAMKDLTYASLCFPEAIKARGMESKEDIPYYFYRDDGLLVWEAIRTFTAEVVDIYYEGDQVVEEDPELQDFVNDVYVYGMRGRKSSGFPKSVKSREQLSEYLTVVIFTASAQHAAVNFGQYDWCSWIPNAPPTMRAPPPTAKGVVTIEQIVDTLPDRGRSCWHLGAVWALSQFQENELFLGMYPEEHFIEKPVKEAMARFRKNLEAIVSVIAERNKKKQLPYYYLSPDRIPNSVAI
B3: Acetylcholine receptor subunit gamma (Homo sapiens), P07510-2 (parent)
chain: MHGGQGPLLLLLLLAVCLGAQGRNQEERLLADLMQNYDPNLRPAERDSDVVNVSLKLTLTNLISLNEREEALTTNVWIEMQWCDYRLRWDPRDYEGLWVLRVPSTMVWRPDIVLENKSQTYSTNEIDLQLSQEDGQTIEWIFIDPEAFTENGEWAIQHRPAKMLLDPAAPAQEAGHQKVVFYLLIQRKPLFYVINIIAPCVLISSVAILIHFLPAKAGGQKCTVAINVLLAQTVFLFLVAKKVPETSQAVPLISKYLTFLLVVTILIVVNAVVVLNVSLRSPHTHSMARGVRKVFLRLLPQLLRMHVRPLAPAAVQDTQSRLQNGSSGWSITTGEEVALCLPRSELLFQQWQRQGLVAAALEKLEKGPELGLSQFCGSLKQAAPAIQACVEACNLIACARHQQSHFDNGNEEWFLVGRVLDRVCFLAMLSLFICGTAGIFLMAHYNRVPALPFPGDPRPYLPSPD
partner: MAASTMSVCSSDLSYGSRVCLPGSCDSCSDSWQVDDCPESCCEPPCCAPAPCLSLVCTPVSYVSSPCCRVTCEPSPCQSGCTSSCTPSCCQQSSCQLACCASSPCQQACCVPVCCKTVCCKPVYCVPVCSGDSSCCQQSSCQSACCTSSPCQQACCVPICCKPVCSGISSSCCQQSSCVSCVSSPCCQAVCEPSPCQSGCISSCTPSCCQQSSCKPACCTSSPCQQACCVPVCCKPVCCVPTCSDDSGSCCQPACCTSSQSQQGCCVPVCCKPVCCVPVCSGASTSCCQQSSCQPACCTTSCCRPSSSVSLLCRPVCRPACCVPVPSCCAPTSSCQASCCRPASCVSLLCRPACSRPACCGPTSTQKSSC
B4: Polyunsaturated fatty acid 5-lipoxygenase (Homo sapiens), P09917 (parent)
chain: B2 chain
partner: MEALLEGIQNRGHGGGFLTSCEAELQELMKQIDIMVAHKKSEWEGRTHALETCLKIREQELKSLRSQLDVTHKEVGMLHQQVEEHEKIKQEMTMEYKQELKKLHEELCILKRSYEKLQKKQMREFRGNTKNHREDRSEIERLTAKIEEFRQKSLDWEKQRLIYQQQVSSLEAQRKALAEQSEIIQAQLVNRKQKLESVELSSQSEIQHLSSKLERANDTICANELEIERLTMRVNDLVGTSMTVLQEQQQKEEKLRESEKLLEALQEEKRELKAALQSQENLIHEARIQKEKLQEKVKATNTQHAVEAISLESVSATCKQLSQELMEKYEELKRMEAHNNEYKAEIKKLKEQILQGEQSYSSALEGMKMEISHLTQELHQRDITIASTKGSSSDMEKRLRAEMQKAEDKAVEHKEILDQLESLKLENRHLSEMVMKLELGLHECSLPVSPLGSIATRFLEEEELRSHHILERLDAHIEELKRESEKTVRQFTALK
B5: U4/U6 small nuclear ribonucleoprotein Prp3 (Homo sapiens), O43395 (parent)
chain: MALSKRELDELKPWIEKTVKRVLGFSEPTVVTAALNCVGKGMDKKKAADHLKPFLDDSTLRFVDKLFEAVEEGRSSRHSKSSSDRSRKRELKEVFGDDSEISKESSGVKKRRIPRFEEVEEEPEVIPGPPSESPGMLTKLQIKQMMEAATRQIEERKKQLSFISPPTPQPKTPSSSQPERLPIGNTIQPSQAATFMNDAIEKARKAAELQARIQAQLALKPGLIGNANMVGLANLHAMGIAPPKVELKDQTKPTPLILDEQGRTVDATGKEIELTHRMPTLKANIRAVKREQFKQQLKEKPSEDMESNTFFDPRVSIAPSQRQRRTFKFHDKGKFEKIAQRLRTKAQLEKLQAEISQAARKTGIHTSTRLALIAPKKELKEGDIPEIEWWDSYIIPNGFDLTEENPKREDYFGITNLVEHPAQLNPPVDNDTPVTLGVYLTKKEQKKLRRQTRREAQKELQEKVRLGLMPPPEPKVRISNLMRVLGTEAVQDPTKVEAHVRAQMAKRQKAHEEANAARKLTAEQRKVKKIKKLKEDISQGVHISVYRVRNLSNPAKKFKIEANAGQLYLTGVVVLHKDVNVVVVEGGPKAQKKFKRLMLHRIKWDEQTSNTKGDDDEESDEEAVKKTNKCVLVWEGTAKDRSFGEMKFKQCPTENMAREHFKKHGAEHYWDLALSESVLESTD
partner: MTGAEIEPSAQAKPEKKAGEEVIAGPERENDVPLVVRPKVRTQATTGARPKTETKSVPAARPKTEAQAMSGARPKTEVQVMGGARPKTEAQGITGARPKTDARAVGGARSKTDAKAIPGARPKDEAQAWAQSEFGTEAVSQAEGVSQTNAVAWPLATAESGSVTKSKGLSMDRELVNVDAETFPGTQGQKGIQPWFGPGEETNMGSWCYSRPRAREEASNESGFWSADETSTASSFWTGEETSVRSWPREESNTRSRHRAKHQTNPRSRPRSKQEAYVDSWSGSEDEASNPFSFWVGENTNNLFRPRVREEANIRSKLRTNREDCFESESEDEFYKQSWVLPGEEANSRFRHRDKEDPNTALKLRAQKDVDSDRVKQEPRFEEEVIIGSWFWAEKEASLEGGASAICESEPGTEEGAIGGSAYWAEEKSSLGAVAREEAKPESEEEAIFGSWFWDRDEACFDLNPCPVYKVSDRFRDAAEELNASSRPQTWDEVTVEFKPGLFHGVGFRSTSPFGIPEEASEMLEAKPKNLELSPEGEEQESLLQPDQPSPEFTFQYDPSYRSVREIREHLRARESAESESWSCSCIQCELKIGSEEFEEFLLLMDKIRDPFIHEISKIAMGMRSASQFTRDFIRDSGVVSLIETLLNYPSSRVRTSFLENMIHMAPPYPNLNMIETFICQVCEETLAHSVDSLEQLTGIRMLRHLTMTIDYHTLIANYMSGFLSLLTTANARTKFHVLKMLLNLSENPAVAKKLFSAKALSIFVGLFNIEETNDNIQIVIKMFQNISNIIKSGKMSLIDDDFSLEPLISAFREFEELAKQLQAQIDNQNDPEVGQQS

Variants of: B1
Conditions: with home3_human HOMER3, Q9NSC5

effect of a mutation on the interaction | Variant
with no effect | T508R

Variants of: B2
Conditions: with md1l1_human MAD1L1, Q9Y6D9
Chain of md1l1_human MAD1L1, Q9Y6D9 (Q9Y6D9 whole entry): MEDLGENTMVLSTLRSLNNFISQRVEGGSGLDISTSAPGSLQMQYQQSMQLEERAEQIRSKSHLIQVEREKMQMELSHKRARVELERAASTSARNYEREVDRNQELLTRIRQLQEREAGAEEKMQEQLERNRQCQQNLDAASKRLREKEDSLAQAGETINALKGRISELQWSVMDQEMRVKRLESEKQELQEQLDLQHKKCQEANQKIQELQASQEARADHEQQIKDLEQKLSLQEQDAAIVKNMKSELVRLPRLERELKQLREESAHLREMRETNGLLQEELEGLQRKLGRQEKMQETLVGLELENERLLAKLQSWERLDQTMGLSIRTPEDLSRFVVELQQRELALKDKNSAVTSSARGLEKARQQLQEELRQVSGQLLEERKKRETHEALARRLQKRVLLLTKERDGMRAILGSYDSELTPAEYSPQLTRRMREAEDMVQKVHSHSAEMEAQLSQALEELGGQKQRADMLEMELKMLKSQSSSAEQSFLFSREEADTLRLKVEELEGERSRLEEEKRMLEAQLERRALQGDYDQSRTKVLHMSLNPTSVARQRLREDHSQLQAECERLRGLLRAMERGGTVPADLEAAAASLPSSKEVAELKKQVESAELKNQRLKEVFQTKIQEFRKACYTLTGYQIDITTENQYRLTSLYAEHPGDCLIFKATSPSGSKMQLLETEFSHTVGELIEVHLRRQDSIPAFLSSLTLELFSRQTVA

effect of a mutation on the interaction | Variant
with no effect | E254K

Variants of: B2
Conditions: with hipl2_human HHIPL2, Q6UWX4
Chain of hipl2_human HHIPL2, Q6UWX4 (Q6UWX4 whole entry): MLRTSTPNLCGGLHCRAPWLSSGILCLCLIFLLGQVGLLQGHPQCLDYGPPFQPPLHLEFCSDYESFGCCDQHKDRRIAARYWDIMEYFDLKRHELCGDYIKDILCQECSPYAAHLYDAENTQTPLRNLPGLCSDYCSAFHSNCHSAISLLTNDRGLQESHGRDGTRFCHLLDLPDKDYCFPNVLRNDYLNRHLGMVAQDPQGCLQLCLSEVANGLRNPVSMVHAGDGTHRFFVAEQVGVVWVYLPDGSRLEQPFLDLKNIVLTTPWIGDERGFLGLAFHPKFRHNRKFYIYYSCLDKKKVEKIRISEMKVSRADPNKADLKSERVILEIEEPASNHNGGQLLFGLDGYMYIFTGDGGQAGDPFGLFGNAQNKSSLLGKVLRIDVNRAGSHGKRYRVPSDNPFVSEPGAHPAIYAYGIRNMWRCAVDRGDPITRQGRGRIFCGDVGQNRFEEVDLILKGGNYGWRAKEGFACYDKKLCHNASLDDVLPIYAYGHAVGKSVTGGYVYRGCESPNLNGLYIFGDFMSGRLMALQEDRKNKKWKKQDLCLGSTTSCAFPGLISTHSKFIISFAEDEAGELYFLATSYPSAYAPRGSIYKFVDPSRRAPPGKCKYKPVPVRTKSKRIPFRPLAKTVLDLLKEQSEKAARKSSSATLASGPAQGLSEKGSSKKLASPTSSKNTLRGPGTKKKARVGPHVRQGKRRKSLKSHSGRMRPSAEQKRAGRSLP

effect of a mutation on the interaction | Variant
with no effect | E254K

Variants of: B2
Conditions: with syce1_human SYCE1, Q8N0S2
Chain of syce1_human SYCE1, Q8N0S2 (Q8N0S2 whole entry): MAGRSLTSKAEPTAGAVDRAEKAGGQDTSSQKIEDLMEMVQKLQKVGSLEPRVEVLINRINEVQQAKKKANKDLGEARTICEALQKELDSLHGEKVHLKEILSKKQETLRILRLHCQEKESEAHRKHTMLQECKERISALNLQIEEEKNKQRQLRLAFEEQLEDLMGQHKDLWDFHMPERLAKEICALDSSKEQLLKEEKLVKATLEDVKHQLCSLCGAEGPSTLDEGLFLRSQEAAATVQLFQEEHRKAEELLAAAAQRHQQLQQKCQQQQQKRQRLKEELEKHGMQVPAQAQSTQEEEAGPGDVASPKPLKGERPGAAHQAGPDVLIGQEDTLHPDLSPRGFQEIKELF

effect of a mutation on the interaction | Variant
with no effect | E254K

Variants of: B3
Conditions: with kr107_human KRTAP10-7, P60409

effect of a mutation on the interaction | Variant
disrupting interaction strength | R187C
disrupting interaction strength | V107G

Variants of: B4
Conditions: with CEP63, Q96MT8-3

effect of a mutation on the interaction | Variant
with no effect | E254K

Variants of: B5
Conditions: with gasp2_human GPRASP2, Q96D09

effect of a mutation on the interaction | Variant
with no effect | P493S
with no effect | T494M
with no effect | A489D
